Data: patent US20020055130A1, “Method and product for regulating apoptosis” (National Jewish Center for Immunology and Respiratory …, priority 1997, published 2002)

Legend:
Assay type in all cases: cell-based, Human
HEK293 cells = assay: MEKK1 staining and TdT-mediated dUTP incorporation (DNA fragmentation) in transfected cells; details: for diminution of apoptotic cells induced by MEKK1 expression: co-expression with MEKK1
Protocol: Human embryonal kidney 293 cells (HEK293) stably expressing the EBNA-1 protein from Epstein-Barr virus (Invitrogen) were grown in Dulbecco's modified Eagle's medium (DMEM) supplemented with 100 U/ml penicillin/streptomycin and containing 10% bovine calf serum (BCS). The cells were transfected using lipofectamine (Gibco).
Cells were grown on glass coverslips and transfected using lipofectamine. Two days after transfection, the medium was removed and the cells were fixed in 2% paraformaldehyde, 3% sucrose in phosphate buffered saline (PBS) for 10 min at room temperature. Following three washes with PBS, the cells were permeabilized for 10 min with 2% Triton-X100 in PBS. After three PBS washes, the cells were blocked with filtered cultured medium for 15 min. The coverslips were then incubated 1 hour in TdT reaction mix (200 mM potassium cacodylate, 25 mM Tris.HCl, pH 6.6, 250 μg/ml BSA, 5 mM CoCl2, 0.25 U/μl TdT [Boehringer], 10 μM biotin-dUTP [Boehringer]) at 37° C. in a humidifed atmosphere. […] The coverslips were then washed 6× over a 30 min period with PBS and incubated 1 hour at room temperature with a 1/1000 dilution in filtered culture medium of a donkey anti-rabbit, Cy^3-conjugated, antibody (Jackson Immunological) mixed with 5 μg/ml streptavidin conjugated with FITC (Jackson Immunological). The coverslips were washed 6× with PBS and incubated overnight in PBS before being mounted in 20 mg/ml o-phenyldiamine-diHCl (Sigma) in 0.1 M Tris pH 8.5, 90% glycerol. Images were taken using a Leica DMRXA microscope and analyzed with the SlideBook v2.0 software (Intelligent Imaging Innovations, Denver). The subcellular localization of endogenous MEKK1 observed with the anti-COOH-terminal MEKK1 antibody was identical to that observed with a second antibody recognizing the NH2-terminal portion of the MEKK1 protein.

MEKK1 = assay: Immunoblot of cleavage fragments of transfected HA-tagged MEKK1 in HEK293 cells; details: for effect on proteolysis of MEKK1: co-expression with MEKK1
Text: The full length cDNA encoding mouse MEKK1 was modified by addition of the HA-tag sequence ([…]) (SEQ ID NO: 12) at its NH2-terminus and inserted into the expression plasmid pCEP4 (Invitrogen), resulting in plasmid MEKK1.cp4. The MEKK1 sequences DTVD (amino acids 871-874) and DEVE (amino acids 857-860) in MEKK1.cp4 were substituted with alanines using a PCR strategy. The resulting plasmids were named DTVD_A.cp4 and DEVE_A.cp4. The cDNAs for CrmA (Pickup et al., 1986), p35 (Cartier et al., 1994), JNK1-APF (Dérijard et al., 1994) and JNK2-APF (Kallunki et al., 1994) were subcloned in pCEP4 in which the hygromycin resistance gene had been removed, resulting in plasmids CrmA.cp_, p35.cp_, JNK1_APF.cp and JNK2_APF.cp_. Plasmid pCDNA—3.cp4 is the result of the ligation of pCEP4 and pCDNA-3.
200-400 μg cell lysate protein was subjected to SDS-9% PAGE and transferred to nitrocellulose membranes. Blots were performed exactly as described (Widmann et al., 1995). To detect HA-tagged proteins, the mouse monoclonal antibody 12CA5 (Babco) was used as the primary antibody, followed by a rabbit anti-mouse antibody (Cappel). HRP-conjugated protein A at a 1/5000 dilution (Zymed) and ^125I-protein A at a 1/500 dilution (Dupont NEN) were then used for enhanced chemiluminescence (ECL) detection and for quantification using the phosphorimager. To detect MEKK1, 3 different ploclonal antisera were used as primary antibodies, followed by ECL detection using HRP-protein A (see above). These sera were generated by injecting rabbits with GST proteins fused with different portions of the MEKK1 protein.

c-Jun kinase (JNK) = assay: c-Jun kinase assay, transfected HEK293 cells; details: for effect on activation of the JNKs by MEKK1: co-expression with MEKK1
Protocol: (§1) Lysis buffer (70 mM β-glycerophosphate, 1 mM EGTA, 100 μM Na3VO4, 1 mM DTT, 2 mM MgCl2, 0.5% Triton-X100, 20 μg/ml aprotinin) was added to cells 15-24 hours after transfection. Cellular debris was removed by centrifugation at 8,000xg for 5 min. Protein concentration was normalized by Bradford assay using BSA as standard.
c-Jun kinase (JNK) activity was measured using a solid phase kinase assay in which glutathione S-transferase-c-Jun(1-79) (GST-Jun) bound to glutathione-Sepharose 4B beads was used to affinity-purify JNK from cell lysates as described (Gardner and Johnson, 1996; Hibi et al., 1993). Alternatively, JNKI or JNK2 were immunoprecipitated with isoform specific antibodies (Santa Cruz Biotechnology) and GST-Jun used as substrate in an in vitro kinase assay (Hibi et al., 1993). Quantitation of the phosphorylation of GST-Jun was performed with a Phosphorlmager.

ERK2 = ERK2 immunoprecipitation kinase assay, transfected HEK293 cells; details: co-expression with MEKK1
Protocol: as §1
ERK2 was immunoprecipitated as described above for the JNK isoforms using the ERK2 (C-14) antibody (Santa Cruz Biotechnology). The beads were washed twice with 1 ml lysis buffer and twice with 1 ml lysis buffer without Triton-X100. […] The samples were washed thrice for 5 min each in 75 mM phosphoric acid and once for 2 min in acetone, air-dried, and their radioactivity determined in a β counter.

B1: DEVE→A: MEKK1 mutant with DEVE (amino acids 857-860) substituted with alanines (protein, UniProt P53349 2-1493, looked up, variant D857A E858A V859A E860A)
Mitogen-activated protein …: AAAAGDRASSSGFPGAAAASPEAGGGGGGGGALQGSGAPAAGAAGLLREPGSAGRERADWRRRQLRKVRSVELDQLPEQPLFLAAASPPCPSTSPSPEPADAAAGASRFQPAAGPPPPGAASRCGSHSAELAAARDSGARSPAGAEPPSAAAPSGREMENKETLKGLHKMEDRPEERMIREKLKATCMPAWKHEWLERRNRRGPVVVKPIPIKGDGSEVNNLAAEPQGEGQAGSAAPAPKGRRSPSPGSSPSGRSVKPESPGVRRKRVSPVPFQSGRITPPRRAPSPDGFSPYSPEETSRRVNKVMRARLYLLQQIGPNSFLIGGDSPDNKYRVFIGPQNCSCGRGAFCIHLLFVMLRVFQLEPSDPMLWRKTLKNFEVESLFQKYHSRRSSRIKAPSRNTIQKFVSRMSNSHTLSSSSTSTSSSENSIKDEEEQMCPICLLGMLDEESLTVCEDGCRNKLHHHCMSIWAEECRRNREPLICPLCRSKWRSHDFYSHELSSPVESPASLRAVQQPSSPQQPVAGSQRRNQESSFNLTHFGTQQIPSAYKDLAEPWIQVFGMELVGCLFSRNWNVREMALRRLSHDVSGALLLANGESTGNSGGGSGGSLSAGAASGSSQPSISGDVVEACCSVLSIVCADPVYKVYVAALKTLRAMLVYTPCHSLAERIKLQRLLRPVVDTILVKCADANSRTSQLSISTVLELCKGQAGELAVGREILKAGSIGVGGVDYVLSCILGNQAESNNWQELLGRLCLIDRLLLEFPAEFYPHIVSTDVSQAEPVEIRYKKLLSLLTFALQSIDNSHSMVGKLSRRIYLSSARMVTAVPAVFSKLVTMLNASGSTHFTRMRRRLMAIAAAAAIAEVIQLGVEDTVDGHQDSLQAVAPTSCLENSSLEHTVHREKTGKGLSATRLSASSEDISDRLAGVSVGLPSSTTTEQPKPAVQTKGRPHSQCLNSSPLSHAQLMFPAPSAPCSSAPSVPDISKHRPQAFVPCKIPSASPQTQRKFSLQFQRNCSEHRDSDQLSPVFTQSRPPPSSNIHRPKPSRPVPGSTSKLGDATKSSMTLDLGSASRCDDSFGGGGNSGNAVIPSDETVFTPVEDKCRLDVNTELNSSIEDLLEASMPSSDTTVTFKSEVAVLSPEKAENDDTYKDDVNHNQKCKEKMEAEEEEALAIAMAMSASQDALPIVPQLQVENGEDIIIIQQDTPETLPGHTKAKQPYREDAEWLKGQQIGLGAFSSCYQAQDVGTGTLMAVKQVTYVRNTSSEQEEVVEALREEIRMMGHLNHPNIIRMLGATCEKSNYNLFIEWMAGGSVAHLLSKYGAFKESVVINYTEQLLRGLSYLHENQIIHRDVKGANLLIDSTGQRLRIADFGAAARLASKGTGAGEFQGQLLGTIAFMAPEVLRGQQYGRSCDVWSVGCAIIEMACAKPPWNAEKHSNHLALIFKIASATTAPSIPSHLSPGLRDVAVRCLELQPQDRPPSRELLKHPVFRTTW
DNA fragmentation (HEK293 cells; expression in HEK293 cells): induced DNA fragmentation
MEKK1 cleavage fragments generated (MEKK1; mutants transfected into HEK293 cells): cleaved into fragments A, B, C and D
JNK activation (c-Jun kinase (JNK); expression in HEK293 cells): activated JNK to the same level as wild type MEKK1

B2: JNK1-APF: inhibitory mutant of JNK1 (protein, UniProt P45983 1-427, looked up, variant T183A Y185F)
Mitogen-activated protein …: MSRSKRDNNFYSVEIGDSTFTVLKRYQNLKPIGSGAQGIVCAAYDAILERNVAIKKLSRPFQNQTHAKRAYRELVLMKCVNHKNIIGLLNVFTPQKSLEEFQDVYIVMELMDANLCQVIQMELDHERMSYLLYQMLCGIKHLHSAGIIHRDLKPSNIVVKSDCTLKILDFGLARTAGTSFMMAPFVVTRYYRAPEVILGMGYKENVDLWSVGCIMGEMVCHKILFPGRDYIDQWNKVIEQLGTPCPEFMKKLQPTVRTYVENRPKYAGYSFEKLFPDVLFPADSEHNKLKASQARDLLSKMLVIDASKRISVDEALQHPYINVWYDPSEAEAPPPKIPDKQLDEREHTIEEWKELIYKEVMDLEERTKNGVIRGQPSPLGAAVINGSQHPSSSSSVNDVSSMSTDPTLASDTDSSLEAAAGPLGCCR
diminution of apoptotic cells induced by MEKK1 expression (HEK293 cells): no effect
diminution of apoptotic cells induced by MEKK1 expression (HEK293 cells; listed as JNKI-APF): no protective effect
effect on proteolysis of MEKK1 (MEKK1): little effect on the proteolysis of the MEKK1 protein
effect on activation of ERK2 by MEKK1 (ERK2): unaffected
effect on activation of the JNKs by MEKK1 (c-Jun kinase (JNK)): unaffected

B3: JNK2-APF: inhibitory mutant of JNK2 (protein, UniProt P45984 1-424, looked up, variant T183A Y185F)
Mitogen-activated protein …: MSDSKCDSQFYSVQVADSTFTVLKRYQQLKPIGSGAQGIVCAAFDTVLGINVAVKKLSRPFQNQTHAKRAYRELVLLKCVNHKNIISLLNVFTPQKTLEEFQDVYLVMELMDANLCQVIHMELDHERMSYLLYQMLCGIKHLHSAGIIHRDLKPSNIVVKSDCTLKILDFGLARTACTNFMMAPFVVTRYYRAPEVILGMGYKENVDIWSVGCIMGELVKGCVIFQGTDHIDQWNKVIEQLGTPSAEFMKKLQPTVRNYVENRPKYPGIKFEELFPDWIFPSESERDKIKTSQARDLLSKMLVIDPDKRISVDEALRHPYITVWYDPAEAEAPPPQIYDAQLEEREHAIEEWKELIYKEVMDWEERSKNGVVKDQPSDAAVSSNATPSQSSSINDISSMSTEQTLASDTDSSLDASTGPLEGCR
effect on proteolysis of MEKK1 (MEKK1): little effect on the proteolysis of the MEKK1 protein
effect on activation of ERK2 by MEKK1 (ERK2): unaffected
effect on activation of the JNKs by MEKK1 (c-Jun kinase (JNK)): unaffected
